Experiments:
[1] = molecular target: T1, human podocalyxin (human); test: flow cytometry, control antibody, MCF7 cells
T1 chain: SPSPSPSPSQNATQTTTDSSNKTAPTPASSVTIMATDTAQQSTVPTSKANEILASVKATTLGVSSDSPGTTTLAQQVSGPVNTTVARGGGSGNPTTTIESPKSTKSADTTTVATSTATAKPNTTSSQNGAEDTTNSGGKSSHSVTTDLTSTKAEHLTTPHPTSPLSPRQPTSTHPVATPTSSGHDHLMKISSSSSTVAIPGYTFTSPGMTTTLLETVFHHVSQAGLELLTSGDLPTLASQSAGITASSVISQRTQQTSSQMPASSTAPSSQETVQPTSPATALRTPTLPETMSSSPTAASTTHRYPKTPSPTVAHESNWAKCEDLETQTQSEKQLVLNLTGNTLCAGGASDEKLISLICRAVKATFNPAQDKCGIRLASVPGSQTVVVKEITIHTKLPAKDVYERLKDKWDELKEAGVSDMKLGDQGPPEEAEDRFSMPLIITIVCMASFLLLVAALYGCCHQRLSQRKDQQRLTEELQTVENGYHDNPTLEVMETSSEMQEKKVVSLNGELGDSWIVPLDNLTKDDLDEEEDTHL

[2] = molecular target: T1, human podocalyxin; test: flow cytometry, control antibody, T47-D cells
[3] = molecular target: T1, human podocalyxin; test: flow cytometry, control antibody, OVCAR3 cells
[4] = molecular target: T1, human podocalyxin; test: flow cytometry, control antibody, OVCAR10 cells
[5] = molecular target: T1, human podocalyxin; test: flow cytometry, control antibody, HUVEC cells
[6] = molecular target: T1, human podocalyxin; test: flow cytometry, control antibody, CaOV3 cells
[7] = molecular target: T1, human podocalyxin; test: flow cytometry, control antibody, MDA-MB-231 cells
[8] = molecular target: T1, human podocalyxin; test: flow cytometry, control antibody, A172 cells
[9] = molecular target: T1, human podocalyxin; test: flow cytometry, control antibody, 293 HEK cells
[10] = molecular target: T1, human podocalyxin; test: flow cytometry, control, 2:15 (so in the source), hPodo/MDA-MB-231 transient transfectants
[11] = molecular target: T1, human podocalyxin; test: flow cytometry, control, 1:125, hPodo/MDA-MB-231 transient transfectants
[12] = molecular target: T1, human podocalyxin; test: flow cytometry, control, neat, hPodo/MDA-MB-231 transient transfectants
[13] = molecular target: T1, human podocalyxin; test: flow cytometry, control, 1:125, MDA-MB-231 cells
[14] = molecular target: T1, human podocalyxin; test: flow cytometry, control, neat, MDA-MB-231 cells
[15] = molecular target: T1, human podocalyxin; test: flow cytometry, control, 1:5, MDA-MB-231 cells
[16] = molecular target: T1, human podocalyxin; test: flow cytometry, control, 2:15 (so in the source), MDA-MB-231 cells
[17] = molecular target: T1, human podocalyxin; test: flow cytometry, control, 1:5, hPodo/MDA-MB-231 transient transfectants

| Live cell GeoMean FL (geometric mean fluorescence units) [1] | Live cell GeoMean FL (geometric mean fluorescence units) [2] | Live cell GeoMean FL (geometric mean fluorescence units) [3] | Live cell GeoMean FL (geometric mean fluorescence units) [4] | Live cell GeoMean FL (geometric mean fluorescence units) [5] | Live cell GeoMean FL (geometric mean fluorescence units) [6] | Live cell GeoMean FL (geometric mean fluorescence units) [7] | Live cell GeoMean FL (geometric mean fluorescence units) [8] | Live cell GeoMean FL (geometric mean fluorescence units) [9] | FACS signal (name not given) [10] | FACS signal (name not given) [11] | FACS signal (name not given) [12] | FACS signal (name not given) [13] | FACS signal (name not given) [14] | FACS signal (name not given) [15] | FACS signal (name not given) [16] | FACS signal (name not given) [17] | Substance |
| --- | --- | --- | --- | --- | --- | --- | --- | --- | --- | --- | --- | --- | --- | --- | --- | --- | --- |
| 657 | 667 | 629 | 653 | 489 | 767 | 477 | 644 | 446 | – | – | – | – | – | – | – | – | Control Rb/Hu IgG1 (antibody) |
| – | – | – | – | – | – | – | – | – | 617 | 645 | 762 | 431 | 574 | 467 | 438 | 660 | Rb IgG (antibody) |
